# Ends that are not written are not given here.
# Target: T1, GLP methyltransferase (Homo sapiens, UniProt Q9H9B1)
# T1 construct: purchased Cayman Chemical 10755
# T1 sequence (Q9H9B1 1-1298): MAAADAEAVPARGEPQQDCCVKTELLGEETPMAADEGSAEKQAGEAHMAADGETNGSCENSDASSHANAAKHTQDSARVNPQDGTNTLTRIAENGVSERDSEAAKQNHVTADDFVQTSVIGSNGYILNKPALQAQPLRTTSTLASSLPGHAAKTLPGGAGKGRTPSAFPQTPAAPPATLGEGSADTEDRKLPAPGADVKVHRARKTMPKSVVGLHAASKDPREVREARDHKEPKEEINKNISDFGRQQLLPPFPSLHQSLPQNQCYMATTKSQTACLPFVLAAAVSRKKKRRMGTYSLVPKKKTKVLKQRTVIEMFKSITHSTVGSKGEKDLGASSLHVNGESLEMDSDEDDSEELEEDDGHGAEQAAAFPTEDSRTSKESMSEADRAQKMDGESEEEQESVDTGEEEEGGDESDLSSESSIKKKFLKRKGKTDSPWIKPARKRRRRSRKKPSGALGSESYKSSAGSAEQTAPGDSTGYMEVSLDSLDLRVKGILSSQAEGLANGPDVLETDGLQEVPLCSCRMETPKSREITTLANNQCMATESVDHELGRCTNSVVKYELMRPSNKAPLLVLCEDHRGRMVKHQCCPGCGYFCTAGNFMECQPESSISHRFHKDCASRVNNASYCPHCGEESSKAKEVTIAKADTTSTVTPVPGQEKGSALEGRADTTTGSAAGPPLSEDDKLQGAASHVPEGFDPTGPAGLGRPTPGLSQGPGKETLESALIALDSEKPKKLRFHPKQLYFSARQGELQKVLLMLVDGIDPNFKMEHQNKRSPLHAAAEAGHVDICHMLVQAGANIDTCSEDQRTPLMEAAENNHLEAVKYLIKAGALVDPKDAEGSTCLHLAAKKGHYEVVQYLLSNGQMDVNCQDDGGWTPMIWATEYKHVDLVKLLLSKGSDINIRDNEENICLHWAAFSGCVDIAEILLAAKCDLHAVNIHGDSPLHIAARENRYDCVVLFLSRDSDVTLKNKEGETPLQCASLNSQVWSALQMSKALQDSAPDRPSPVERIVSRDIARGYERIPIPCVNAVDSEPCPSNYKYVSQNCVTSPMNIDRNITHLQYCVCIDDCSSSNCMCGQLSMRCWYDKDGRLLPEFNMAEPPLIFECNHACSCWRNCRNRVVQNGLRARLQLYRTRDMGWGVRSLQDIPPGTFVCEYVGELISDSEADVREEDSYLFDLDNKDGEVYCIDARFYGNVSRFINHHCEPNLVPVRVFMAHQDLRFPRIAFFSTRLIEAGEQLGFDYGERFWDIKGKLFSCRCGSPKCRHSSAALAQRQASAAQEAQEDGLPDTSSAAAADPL
# Assay: In vitro methylation of unmodified H1.0 peptide with GLP, products by LC-MS
# Format: biochemical
# Conditions: LC-MS spectral counts; 10U GLP, 3.2 mM S-Adenosyl-L-Methionine, 37° C. 1 hour
# Procedure: In order to identify the precise sites of methylation by G9A and GLP methyltransferases on histone H1.0, in vitro methylation assays were performed and subsequently analyzed by Liquid Chromatography and High-resolution Mass Spectrometry (LC-MS) analysis. Methylation reactions were set up using either G9A methyltransferase (NEB, M0235S, Lot #0031201) or GLP methyltransferase (Cayman Chemical, 10755). The methyl donor in each reaction was unlabeled S-Adenosyl-L-Methionine (NEB, B9003S). […]
# For the Liquid Chromatography and High-resolution Mass Spectrometry (LC-MS) analysis, samples were prepared as described above and about 1 μg o the product was injected onto a Thermo Scientific Easy nLC system configured with a 10 cm×100 um trap column and a 25 cm×100 um ID resolving column. […] This ensured optimal full-scan data for quantification. […]
# Protein identification was performed using Thermo Scientific Proteome Discoverer version 1.4 (including Sequest and Percolator algorithms) using RefSeqHuman sequence database. […] Protein quantification was performed using Pinpoint version 1.4 software. The Pinpoint quantification workflow included importing the Proteome Discoverer .msf files as spectral libraries. Identified peptides were subsequently quantified in MS .raw files using the Pinpoint peak finding, chromatographic alignment and area calculation algorithms. […]
sequence,measurement,value
"AKPVKASKPKKAKPVKPK (not fully specified (N-terminus); listed as Homo sapiens) [unmethylated H1.0 peptide, unmodified H1.0 peptide substrate for in vitro methylation]","H1.0K180 dimethylated, % of all peptides",96.6%

# — patent US10921324B2, “Compositions and methods related to the methylation of histone H1.0 protein” (Aelan Cell Technologies, Inc., priority 2016, dated 2021)
